{"source": "paper PMC11524583", "about": "“Neurons enhance blood–brain barrier function via upregulating claudin-5 and VE-cadherin expression due to glial cell line-derived neurotrophic factor secretion” (eLife, 2024)", "molecules": {"B1": {"name": "GDNF: glial cell line-derived neurotrophic factor, recombinant protein (R&D system) (protein, UniProt P39905 78-211, looked up)", "Glial cell line-derived …": "SPDKQMAVLPRRERNRQAAAANPENSRGKGRRGQRGKNRGCVLTAIHLNVTDLGLGYETKEELIFRYCSGSCDAAETTYDKILKNLSRNRRLVSDKVGQACCRPIAFDDDLSFLDDNLVYHILRKHSAKRCGCI"}}, "key": {"claudin-5 [1]": {"tested_on": "claudin-5", "assay": "Western blot of claudin-5 in primary rat brain microvascular endothelial cells", "assay_type": "cell-based", "details": "primary rat BMECs, 200 pg/ml GDNF or US-CM", "procedure": "Then, hCMEC/D3, U251, and SH-SY5Y cells were cultured in DMEM/F12 containing 10% FBS, 62.5 µg/ml penicillin and 100 µg/ml streptomycin. Cell viability was assessed using a CCK-8 kit (Beyotime Biotechnology, Shanghai, China), and the results were expressed as the fold of control.\n(§1) Whole-cell and tissue lysates, nucleoprotein, and cytoplasmic protein were prepared using RIPA Lysis Buffer (Beyotime, Shanghai, China) as the described method ([Wu et al., 2021]). Proteins were separated through sodium dodecyl sulfate–polyacrylamide gel electrophoresis and transferred onto nitrocellulose or polyvinylidene difluoride membranes. The membranes were blocked with 5% skim milk and incubated with corresponding primary antibodies at 4°C overnight. After being washed with Tris-buffered saline Tween buffer, the membranes were incubated with secondary antibodies (Cell Signaling Technology, MA, USA) at 1:3000 dilution: Anti-mouse IgG, HRP-linked Antibody (#7076), Anti-rabbit IgG, HRP-linked Antibody (#7074). Protein levels were visualized using a highly sensitive ECL western blotting substrate and a gel imaging system (Tanon Science & Technology, Shanghai, China)."}, "[2]": {"tested_on": "hCMEC/D3 mono-culture BBB model", "assay": "TEER of hCMEC/D3 mono-culture BBB model", "assay_type": "cell-based, Homo sapiens", "details": "for TEER: individual replicates"}, "claudin-5 [3]": {"tested_on": "claudin-5", "assay": "Western blot of claudin-5 expression in hCMEC/D3 cells", "assay_type": "cell-based, Homo sapiens", "procedure,_shortened": "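hCMEC/D3 cells were cultured in U251/SH-SY5Y co-culture conditioned medium or 200 pg/ml GDNF, with or without 0.25–1.0 μg/ml anti-GDNF antibody, for 6 days; alternatively, after 10 nM siRNA or FOXO1 plasmid transfection, cells received GDNF medium for 72 hr. RIPA lysates were analysed by SDS-PAGE immunoblot with ECL detection.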"}, "p-AKT/AKT": {"tested_on": "p-AKT/AKT", "assay": "Western blot of p-AKT/AKT in hCMEC/D3 cells", "assay_type": "cell-based, Homo sapiens", "procedure": "as §1\nExogenous and endogenous GDNF in the medium was neutralized with anti-GDNF antibody (#AF-212-NA, R&D system, Minneapolis, MN, USA). 0.25, 0.5, and 1.0 μg/ml anti-GDNF antibody was added into the US-CM or medium containing 200 pg/ml GDNF, and then the medium was preincubated at 4°C for 1 hr. The hCMEC/D3 cells were incubated with 200 pg/ml GDNF or US-CM containing anti-GDNF antibody or not for 6 days, and then cell lysate was collected for western blot. The medium was replaced every 24 hr."}, "p-p38/p38": {"tested_on": "p-p38/p38", "assay": "Western blot of p-p38/p38 in hCMEC/D3 cells", "assay_type": "cell-based, Homo sapiens", "details": "hCMEC/D3 cells; 200 pg/ml GDNF", "procedure": "as §1"}, "[4]": {"details": "relative to Con (mean 1.000), mean of 4, Figure 3A"}, "[5]": {"details": "relative to Con (mean 1.000), single replicates, Figure 3A"}}, "note": "“And” between values parts separate entries of the source, which are not always exact repeats. Equal entries are not always repeated."}
{"molecule": "B1", "values": [{"measurement": "Claudin-5/β-actin Relative Expression, Mean", "setting": "claudin-5 [1]; Con = 1.000 (Figure 2J)", "result": 1.469}, {"measurement": "Claudin-5/β-actin Relative Expression", "setting": "claudin-5 [1]; relative to Con, single replicate (Figure 2J)", "result": "1.317 and 1.479 and 1.586 and 1.495"}, {"measurement": "TEER", "setting": "[2]; Figure 2M, Day3", "result": "61.71 Ω·cm2 and 62.7 Ω·cm2 and 62.37 Ω·cm2"}, {"measurement": "TEER", "setting": "[2]; Figure 2M, Day4", "result": "64.35 Ω·cm2 and 63.69 Ω·cm2 and 66 Ω·cm2 and 65.34 Ω·cm2"}, {"measurement": "TEER", "setting": "[2]; Figure 2M, Day5", "result": "68.31 Ω·cm2 and 66.99 Ω·cm2 and 67.65 Ω·cm2 and 67.32 Ω·cm2"}, {"measurement": "TEER", "setting": "[2]; Figure 2M, Day6", "result": "69.3 Ω·cm2 and 67.32 Ω·cm2 and 68.64 Ω·cm2 and 66.99 Ω·cm2"}, {"measurement": "TEER", "setting": "[2]; Figure 2O, Day3", "result": "71.61 Ω·cm2 and 69.3 Ω·cm2 and 68.64 Ω·cm2 and 69.63 Ω·cm2"}, {"measurement": "TEER", "setting": "[2]; Figure 2O, Day4", "result": "74.25 Ω·cm2 and 76.23 Ω·cm2 and 72.27 Ω·cm2 and 74.91 Ω·cm2"}, {"measurement": "TEER", "setting": "[2]; Figure 2O, Day5", "result": "77.22 Ω·cm2 and 72.93 Ω·cm2 and 74.58 Ω·cm2 and 77.55 Ω·cm2"}, {"measurement": "TEER", "setting": "[2]; Figure 2O, Day6", "result": "76.23 Ω·cm2 and 73.92 Ω·cm2 and 76.56 Ω·cm2"}, {"measurement": "TEER values", "setting": "[2]; hCMEC/D3 mono-culture, 200 pg/ml GDNF, day 6", "result": "significantly increased"}, {"measurement": "Claudin-5/β-actin Relative Expression, Mean", "setting": "claudin-5 [3]; 50pg, Figure 2D, Con = 1.000", "result": 1.434}, {"measurement": "Claudin-5/β-actin Relative Expression", "setting": "claudin-5 [3]; 50pg, Figure 2D, relative to Con, single replicates", "result": "1.162 and 1.622 and 1.551 and 1.402"}, {"measurement": "Claudin-5/β-actin Relative Expression, Mean", "setting": "claudin-5 [3]; 100pg, Figure 2D, Con = 1.000", "result": 1.645}, {"measurement": "Claudin-5/β-actin Relative Expression", "setting": "claudin-5 [3]; 100pg, Figure 2D, relative to Con, single replicates", "result": "1.855 and 1.384 and 1.893 and 1.449"}, {"measurement": "Claudin-5/β-actin Relative Expression, Mean", "setting": "claudin-5 [3]; 200pg, Figure 2D, Con = 1.000", "result": 2.035}, {"measurement": "Claudin-5/β-actin Relative Expression", "setting": "claudin-5 [3]; 200pg, Figure 2D, relative to Con, single replicates", "result": "2.027 and 2.014 and 1.765 and 2.333"}, {"measurement": "Claudin-5/β-actin Mean", "setting": "claudin-5 [3]; Figure 2I, hCMEC/D3 cells, group mean, relative to Con", "result": 1.520}, {"measurement": "Claudin-5/β-actin Relative Expression", "setting": "claudin-5 [3]; Figure 2I, hCMEC/D3 cells, individual replicates, relative to Con", "result": "1.748 and 1.509 and 1.594 and 1.229"}, {"measurement": "Claudin-5/β-actin Mean", "setting": "claudin-5 [3]; Figure 2K, hCMEC/D3 cells, group mean, relative to Con", "result": 1.490}, {"measurement": "Claudin-5/β-actin Relative Expression", "setting": "claudin-5 [3]; Figure 2K, hCMEC/D3 cells, individual replicates, relative to Con", "result": "1.399 and 1.426 and 1.661 and 1.475"}, {"measurement": "Claudin-5/β-actin Relative Expression, Mean", "setting": "claudin-5 [3]; Figure 5G, hCMEC/D3 cells, group mean, NC = 1.000", "result": 1.393}, {"measurement": "Claudin-5/β-actin Relative Expression", "setting": "claudin-5 [3]; Figure 5G, hCMEC/D3 cells, single replicates, relative to NC group", "result": "1.279 and 1.343 and 1.470 and 1.479"}, {"measurement": "claudin-5 expression", "setting": "claudin-5 [3]; hCMEC/D3 cells incubated with conditioned medium or neurotrophic factor vs normal medium", "result": "induced the expression of claudin-5 and VE-cadherin in a concentration-dependent manner"}, {"measurement": "Claudin-5/β-actin Relative Expression, Mean", "setting": "claudin-5 [3]; [4]", "result": 1.789}, {"measurement": "Claudin-5/β-actin Relative Expression, Mean", "setting": "claudin-5 [3]; relative to Con (mean 1.000), mean of 4, Figure 3B", "result": 1.788}, {"measurement": "Claudin-5/β-actin Relative Expression, Mean", "setting": "claudin-5 [3]; relative to Con (mean 1.000), mean of 4, Figure 3C", "result": 2.325}, {"measurement": "Claudin-5/β-actin Relative Expression, Mean", "setting": "claudin-5 [3]; relative to Con (mean 1.000), mean of 4, Figure 3D", "result": 1.421}, {"measurement": "Claudin-5/β-actin Relative Expression", "setting": "claudin-5 [3]; [5]", "result": "1.761 and 1.657 and 1.692 and 2.046"}, {"measurement": "Claudin-5/β-actin Relative Expression", "setting": "claudin-5 [3]; relative to Con (mean 1.000), single replicates, Figure 3B", "result": "1.594 and 2.146 and 1.495 and 1.917"}, {"measurement": "Claudin-5/β-actin Relative Expression", "setting": "claudin-5 [3]; relative to Con (mean 1.000), single replicates, Figure 3C", "result": "2.223 and 2.345 and 2.874 and 1.857"}, {"measurement": "Claudin-5/β-actin Relative Expression", "setting": "claudin-5 [3]; relative to Con (mean 1.000), single replicates, Figure 3D", "result": "1.649 and 1.456 and 1.174 and 1.405"}, {"measurement": "phosphorylation of AKT (p-AKT)", "setting": "p-AKT/AKT; hCMEC/D3 cells, 200 pg/ml GDNF or US-CM", "result": "accompanied by the phosphorylation"}, {"measurement": "p-AKT/AKT Relative Expression, Mean", "setting": "p-AKT/AKT; mean of 4, relative to Con, GDNF alone, Figure 3E", "result": 1.284}, {"measurement": "p-AKT/AKT Relative Expression, Mean", "setting": "p-AKT/AKT; [4]", "result": 1.345}, {"measurement": "p-AKT/AKT Relative Expression", "setting": "p-AKT/AKT; [5]", "result": "1.311 and 1.24 and 1.38 and 1.4488"}, {"measurement": "p-AKT/AKT Relative Expression", "setting": "p-AKT/AKT; single replicate, relative to Con, GDNF alone, Figure 3E", "result": "1.359 and 1.208 and 1.388 and 1.180"}, {"measurement": "phosphorylation of p38", "setting": "p-p38/p38", "result": "did not stimulate"}]}
